This is an account of results in patent US10502741B2, “Means and methods for detecting activated MALT1” (Helmholtz Zentrum München Deutsches Forschungszentrum für …, priority 2014, dated 2019).

The target of test [1] is T1, active MALT1 (Homo sapiens, UniProt Q9UDY8).
T1 construct: endogenous in cells; host or cells: Jurkat T cells, primary human PBMCs and T cells, DLBCL cell lines (HBL1, TMD8, OCI-Ly3, OCI-Ly10, U2932, RIVA, BJAB, Su-DHL-4, Su-DHL-6)
T1 sequence (Q9UDY8 1-824): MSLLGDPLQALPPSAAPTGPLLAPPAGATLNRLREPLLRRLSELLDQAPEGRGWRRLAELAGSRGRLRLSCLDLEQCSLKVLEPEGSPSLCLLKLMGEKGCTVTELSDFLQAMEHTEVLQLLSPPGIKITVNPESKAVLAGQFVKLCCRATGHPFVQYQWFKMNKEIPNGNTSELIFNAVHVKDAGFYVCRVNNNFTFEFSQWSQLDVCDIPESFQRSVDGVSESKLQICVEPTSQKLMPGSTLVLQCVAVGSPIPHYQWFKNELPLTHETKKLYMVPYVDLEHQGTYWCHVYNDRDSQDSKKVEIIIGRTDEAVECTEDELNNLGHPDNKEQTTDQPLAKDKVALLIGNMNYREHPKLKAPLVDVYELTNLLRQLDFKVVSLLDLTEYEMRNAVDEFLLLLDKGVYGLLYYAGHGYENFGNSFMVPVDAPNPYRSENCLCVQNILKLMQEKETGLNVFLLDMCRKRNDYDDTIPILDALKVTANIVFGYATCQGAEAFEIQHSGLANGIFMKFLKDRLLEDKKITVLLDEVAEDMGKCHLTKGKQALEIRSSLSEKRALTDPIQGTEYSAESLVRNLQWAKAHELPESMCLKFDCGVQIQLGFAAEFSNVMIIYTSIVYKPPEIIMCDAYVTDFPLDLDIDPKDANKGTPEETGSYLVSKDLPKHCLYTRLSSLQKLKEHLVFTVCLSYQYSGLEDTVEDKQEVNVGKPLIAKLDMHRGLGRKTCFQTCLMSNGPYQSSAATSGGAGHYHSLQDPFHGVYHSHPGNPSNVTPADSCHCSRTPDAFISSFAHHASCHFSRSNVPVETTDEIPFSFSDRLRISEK
The test can be described thus: ELISA-based assay (MALT1 ELASA) on streptavidin-coated plates with MALT1 antibody detection. The test is classed as cell-based. The note with it: inhibitor-treated (10 μM) DLBCL cells, probe 7. Here is the method:
(§1) Jurkat T cells were cultured in standard RPMI medium containing 10% FCS, 100 U/ml Penicillin/Streptomycin and 2 mM Glutamin. DNA transfection of 6 μg DNA in 8×10^6 Jurkat T cells was performed by electroporation in a GenePulser Xcell (BioRad) with a 220 Volt pulse. For siRNA experiments, Jurkat T cells were transfected with 100 nM siRNA and Atufect transfection reagent (Silence Therapeutics, Berlin). Jurkat T cells were stimulated either with 200 ng/ml PMA (phorbol 12-myristate 13-acetate) and 300 ng/ml Ionomycin (both Calbiochem) or CD3/CD28 antibody co-ligation (human CD3: 1 μg/ml; human CD28: 4 μg/ml; mouse IgG1: 2 μg/ml; mouse IgG2a: 2 μg/ml; BD Biosciences). DLBCL cell lines (HBL1, TMD8, OCI-Ly3, U2932, RIVA, BJAB, Su-DHL-4 and Su-DHL-6) were cultured in standard RPMI medium containing 20% FCS, 100 U/ml Penicillin/Streptomycin and 2 mM Glutamin. OCI-Ly10 cell line was cultured in IMDM containing 20% human serum, 100 U/ml Penicillin/Streptomycin, 2 U/ml heparine, 50 μM β-mercaptoethanol. Inhibitors 10 μM (z-VRPR-FMK, Mepazine, Thioridazine, CA-074Me) were added to the cells in media for 1 h, prior to stimulation and labeling with diagnostic MALT1 inhibitor.
Untreated DLBCL (1×10^7), primary T cells (0.25×10^7) or Jurkat T cells (0.2-1×10^7) (stimulated or not) were lysed in 300 μl co-IP buffer without protease inhibitors, centrifuged, incubated with probe 7 (concentration as depicted) for 1 h at RT, then transferred to streptavidin-coated plates (96 well, clear) and incubated o/n at 4° C. After blocking with 2% BSA in PBS-T, detection was performed by incubation with MALT1 primary antibody (1 h, RT) and HRP-coupled secondary antibody (1 h, RT). […] was determined after TMB substrate incubation in a photometer (Bio-Tek).

The target in test [2] is cathepsin B (Homo sapiens, UniProt P07858). Briefly: Cathepsin B cleavage assay (zRR-AMC substrate). The test is classed as biochemical. The following applies: 0.2 ng cathepsin B, 1 mM zRR-AMC, 2 h at 30° C. More on the design: purchased BioVision. The method, then: (§2) C) Impact of indicated compounds on MALT1, Caspase8 and cathepsin B was tested in in vitro cleavage assays using fluorescent substrates. Results and SD from three independent experiments are shown.
0.2 ng cathepsin B together with probe 5, z-VRPR-FMK (SEQ ID No. 6), mepazine or CA-074 was incubated with 1 mM zRR-AMC substrate for 2 h at 30° C. Assay was performed in 0.1 M sodium acetate pH 5.5, 10 mM DTT and 0.1 mM EDTA. Again, increase of AMC fluorescence is measured in a Synergy 2 Microplate Reader (Biotek).

Test [3] has as its target T1, active MALT1. The test can be described thus: Probe 7-pulldown with streptavidin beads and western blot. Type of test: cell-based. The note with it: Jurkat T cells pretreated with 10 μM inhibitors, 0.1 μM probe 7. The method, then:
as §1
Untreated DLBCL (1-2×10^7) or Jurkat T cells (stimulated with PMA/Ionomycin or CD3/28 or left untreated; 1-2×10^7), were lysed in 500 μl co-IP buffer without protease inhibitors, centrifuged, incubated with probe 7 (concentration as depicted) for 1 h at RT then incubated with streptavidin beads for 2 h at 4° C. Precipitate was washed, analysed by SDS-PAGE and western blot.
For orientation: A western blot detects proteins with antibodies after separation by electrophoresis.

Test [4] concerns the target T2, MALT1 (Homo sapiens, UniProt Q9UDY8).
T2 construct: GST
T2 sequence (Q9UDY8 1-824): T1 sequence (Q9UDY8 1-824)
The test can be described thus: MALT1 in vitro cleavage assay using fluorescent substrate. The test is classed as biochemical. Here is the method: as §2
Preferably, MALT1 activity is determined in a MALT1 cleavage assay. […] The assay may be performed in cleavage buffer comprising for example 50 mM MES, 1 M sodium citrate pH 7, 150 mM NaCl, 10% sucrose, 0.1% chaps, 10 mM DTT. Catalytically active MALT1 cleaves the substrate and an increase of AMC fluorescence can be measured.

As for “z-VRPR-FMK (Z N-terminal cap, FMK warhead)”, the “effect of inhibitor on active MALT1 signal in DLBCL cells” value in test [1] is on record as “strongly reduced”. Besides, the “inhibition of cathepsin B activity in vitro” value in test [2] is listed as “abrogated cathepsin B activity even though slightly less efficient”. For the same substance, the “effect of inhibitor on formation of MALT1-probe 7 complexes” value in test [3] is “blocked”. In addition, the “inhibition of MALT1 protease activity in vitro” value in test [4] is listed as “inhibit MALT1”.
